Results taken from US20050085416A1, “Biologically active complex” (priority 2002, published 2005).
Substitutions are numbered along the chain they refer to. In names and notes the source's numbering stands. Several values for one entry are separate records, joined by “and”; a condition that tells them apart may be missing. Equal values may be shown once. Entries after “also recorded” stand apart in the source; their conditions may differ. Read-outs that look alike come from different tables or passages of the source.

Experiments:
[1] = Ca2+ titration in the presence of chromophoric chelator quin 2; assay type: binding; conditions: for Ca2+ binding: quin 2 titration; for Ka, calcium association constant: 2 mM Tris/HCl, chelator quin 2; for Kd: read-out: KD, calcium
Excerpt: To study the Ca^2+ binding equilibrium, the proteins listed in table 1 including the D87A BAMLET obtained as described in Example 7, and HAMLET, was titrated with calcium in the presence of a chromophoric chelator, quin 2, for which the absorbance at 263 nm decreases (approx. 85%) upon Ca^2+-binding. The method relies on competition for calcium between the protein and chelator, and can be used to quantitate high affinity sites (ca. 10^7-5·10^9 M^−1 at low salt, and ca. 5 10^5-1·10^8 M^−1 at 0.15 NaCl) when quin 2 is the chelator. The exact concentration of the chelator solution (in the range of 25-30 μM) was calculated from the absorbance at 239.5 nm in the presence of excess calcium (using ε239.5=4.2×10^4 L mol^−1 cm^−1 for quin 2). Lyophilised protein was dissolved in calcium free (<1 μM Ca^2+) chelator solution at a concentration of 25-30 μM. The absorbance at 263 nm (A263) was recorded for the protein/chelator solution using a UV/Vis 920 spectrophotometer (GBC Scientific Equipment Pty Ltd, Victoria, Australia). Calcium solution (3 mM CaCl2 in 2 mM Tris/HCl, pH 7.5, with or without 0.15 M NaCl) was added in portions of 4 μl. A263 was recorded after each calcium addition.
A more concentrated Ca^2+ stock (10 mM) was used at the end of the titrations of the proteins in 0.15 M NaCl. The data was analysed by least squares fitting directly to the measured quantity, absorbance versus total calcium concentration, using the CaLigator software (Andre and Linse, 2002).

[2] = tested on: L1210 leukaemia cells; test: Apoptosis bioassay: L1210 cell viability by Trypan blue exclusion; assay type: cell-based, mouse; conditions: for loss of cell viability: L1210, 0.3 mg/ml; for LD50: L1210 cells; for apoptosis induction / biological activity: apoptosis assay
Experimental: The different agonists were dissolved in cell culture medium, without fetal calf serum, and added to the cells (final volume 1 ml per well). Plates were incubated at 37° C. in 5% CO2 atmosphere and 100 μl of fetal calf serum was added to each well after 30 minutes. Cell culture medium served as a control.
Cell viability was determined by Trypan blue exclusion after six hours of incubation. For analysis, 30 μl of the cell suspension was mixed with 30 μl of a 0.2% trypan blue solution and the number of stained cells (dead cells) per 100 cells was determined by interference contrast microscopy (Ortolux II, Leitz Wetzlar, Germany).

[3] = tested on: L1210 leukaemia cells; test: DNA fragmentation (oligonucleosome length fragments, agarose gel) in L1210 cells; assay type: cell-based, mouse; conditions: L1210, six hours
Experimental: Oligonucleosome length DNA fragments were detected by agarose gel electrophoresis. The cell suspension remaining after trypan blue (970 μl, 2×10^6/ml) was lysed in 5 mM Tris, 20 mM EDTA, 0.5% Triton X-100 pH 8.0 at 4° C. for 1 hour and centrifuged at 13,000×g for 15 minutes. DNA was ethanol precipitated over night in −20° C., treated with proteinase K and RNAse, loaded on 1.8% agarose gels and electrophoresed with constant voltage set at 50V over night. DNA fragments were visualised with ethidium bromide using a 305 nm UV-light source and photographed using Polaroid type 55 positive-negative film.

[4] = cited from earlier work; for calcium binding: point mutants of bovine α-lactalbumin
[5] = Spectroscopy (near UV CD, fluorescence, ANS) after addition of excess calcium; assay type: binding; conditions: excess calcium (1 mM), no spectral changes
Experimental: The products were then subjected to spectroscopic analysis. The proteins or protein fractions were dialyzed against doubly distilled water and lyophilised. Stock solutions were prepared by dissolving the lyophilised material in 10 mM potassium phosphate buffer at pH 7.5, and concentrations determined as the absorbance at 280 nm (A/l=C (mg/ml) where 1 mg/ml of α-lactalbumin is 70 μM). The spectra were recorded at the appropriate dilution.
Circular Dichroism (CD) spectra were obtained on a JASCO J-720 spectro-polarimeter with a JASCO PTC-343 Peltier type thermostated cell holder. Quartz cuvettes were used with 1 cm path length and spectra were recorded at 25° C. between 240 and 320 nm. […] Six scans were recorded and averaged for each spectrum. Baseline spectra were recorded with pure buffer in the cuvette and substracted from the protein spectra.
Fluorescence spectra were recorded at 25° C. on a Perkin Elmer LS-50B spectrometer using a quartz cuvette with 1 cm excitation path length. Intrinsic (tryptophan) fluorescence emission spectra were recorded between 305 and 530 nm (step 1 nm) with excitation at 295 nm. […] ANS fluorescence emission spectra were recorded at 25° C. on a Perkin Elmer LS-50B spectrometer using a quartz cuvette with 1 cm excitation path length, between 400 and 600 nm (step 1 nm) with excitation at 385 nm. […]

[6] = 20° C.; cited from earlier work
[7] = L1210, six hours, 0.3 mg/ml, reduced from 99%
[8] = 5 mM Tris, 0.1 mM EDTA, pH 7.2, 298 K, CD 270 nm
[9] = 10 mM Tris/HCl, no salt, pH 7.5, 298 K, ITC
[10] = H2O, 100 mM KCl, pH 7, 294 K, EDTA, 43Ca-NMR
[11] = L1210, 6 hours' exposure, 0.5 mg/ml, from 98%
[12] = 150 mM NaCl (physiological salt)
[13] = physiological salt, 0.15 M NaCl

## BAMLET
[1]
  Ca2+ binding: shown to bind Ca^2+
[2]
  loss of cell viability: equally sensitive
  LD50: 0.2 mg/mL
[2]; L1210, 6 hours' exposure, reduced from 98%, concentration not given
  cell viability: 4%
[2]; [7]
  cell viability: 12%
[3]
  DNA fragmentation: stimulated the formation of the characteristic DNA ladder; also recorded: induces DNA fragmentation

## α-lac bovine: bovine α-lactalbumin
[4]; [8]
  Ka: 2.5e+08 M⁻¹
[4]; [9]
  Ka: 4.3e+08 M⁻¹
[4]; 10 mM Tris/HCl, pH 8, DSC
  Ka: 2.85e+08 M⁻¹
[4]; 10 mM ammonium bicarbonate, pH 7.8, EGTA, fluorescence
  Ka: 4.8e+07 M⁻¹
[4]; 20 mM Tris, pH 7.5, 298 K, fluorescence, Hummel & Dryer method
  Ka: 2.7e+06 M⁻¹
[4]; 20 mM Tris, pH 7.5, 298 K, microcalorimetry
  Ka: 2.5e+06 M⁻¹
[4]; 50 mM Hepes, pH 8, 293 K, fluorescence
  Ka: 4e+08 M⁻¹
[4]; 50 mM Hepes, pH 8, 310 K, fluorescence
  Ka: 2e+07 M⁻¹
[4]; [10]
  Ka: 2e+07 M⁻¹
[4]; H2O, 100 mM KCl, pH 8, 294-298 K, EGTA 13C-NMR
  Ka: 2e+07 M⁻¹

B1: D87A: bovine α-lactalbumin with aspartic acid at position 87 substituted by alanine (protein, UniProt P00711 20-142, looked up, variant D87A)
Alpha-lactalbumin: EQLTKCEVFRELKDLKGYGGVSLPEWVCTTFHTSGYDTQAIVQNNDSTEYGLFQINNKIWCKDDQNPHSSNICNISCDKFLDDDLTADIMCVKKILDKVGINYWLAHKALCSEKLDQWLCEKL
[4]
  calcium binding: totally abolished calcium binding
[2]
  apoptosis induction / biological activity: biologically inactive
[5]
  calcium binding: did not bind calcium

B2: D87N: bovine α-lactalbumin with aspartic acid at position 87 substituted by asparagine (protein, UniProt P00711 20-142, looked up, variant D87N)
Alpha-lactalbumin: B1 Alpha-lactalbumin with A87N
[4]
  calcium binding: still bound calcium but with lower affinity
[2]
  apoptosis induction / biological activity: biologically inactive

B3: D87A-BAMLET: protein-lipid complex of D87A mutant bovine α-lactalbumin eluted from C18:1 conditioned column (protein, UniProt P00711 20-142, looked up, variant D87A)
Alpha-lactalbumin: B1 Alpha-lactalbumin
modifications: complex with C18:1 fatty acid
notes: protein-lipid complex of D87A mutant bovine α-lactalbumin eluted from C18:1 conditioned column
[1]
  Ca2+ binding: no difference compared to the titration of quin 2 alone; also recorded: does not bind Ca^2+
[2]; [11]
  cell viability: 13%
[2]
  LD50: 0.4 mg/mL
[3]
  DNA fragmentation: induced DNA fragmentation similar to the BAMLET control

B4: D87N-BAMLET: protein-lipid complex of D87N mutant bovine α-lactalbumin eluted from C18:1 conditioned column (protein, UniProt P00711 20-142, looked up, variant D87N)
Alpha-lactalbumin: B1 Alpha-lactalbumin with A87N
modifications: complex with C18:1 fatty acid
notes: protein-lipid complex of D87N mutant bovine α-lactalbumin eluted from C18:1 conditioned column
[2]; [11]
  cell viability: 17%
[2]
  LD50: 0.4 mg/mL
[3]
  DNA fragmentation: induced DNA fragmentation similar to the BAMLET control

B5: αlac goat: goat α-lactalbumin (protein, UniProt P00712 20-142, looked up)
Alpha-lactalbumin: B1 Alpha-lactalbumin with R10Q, E11K, G17D, T30A, S70R, A87D, M90V, V92A
[4]; [8]
  Ka: 2.8e+08 M⁻¹
[4]; [9]
  Ka: 5.7e+08 M⁻¹

B6: HAMLET (protein, UniProt P00709 20-142, looked up)
Alpha-lactalbumin: KQFTKCELSQLLKDIDGYGGIALPELICTMFHTSGYDTQAIVENNESTEYGLFQISNKLWCKSSQVPQSRNICDISCDKFLDDDITDDIMCAKKILDIKGIDYWLAHKALCTEKLEQWLCEKL
modifications: complex with oleic acid
[1]; [12]
  Ka, calcium association constant: 5.3.10^6 M^−1 and 5.3 · 10^6 M^−1
[1]; low salt (no added salt)
  Ka, calcium association constant: 5.9e+09 M⁻¹ and 5.9e+08 M⁻¹
[1]; low salt
  Kd: 1.7 nM
[1]; no salt added
  calcium affinity, times lower than α-lactalbumin: 3 times
[1]; physiological salt concentration
  calcium affinity, times lower than α-lactalbumin: 1.6 times
[1]; [13]
  Kd: 190 nM
[1]
  Ca2+ binding: shown to bind Ca^2+
[2]
  loss of cell viability: died rapidly
  LD50: 0.2 mg/mL
  apoptosis induction / biological activity: cause apoptosis
[2]; L1210, HAMLET 0.3 mg (0.3 mg/ml)
  apoptosis induction: induced apoptosis; also recorded: sufficient to kill the cells by apoptosis
[2]; [7]
  cell viability: 0%
[3]
  DNA fragmentation: DNA fragmentation was induced
[3]; listed as C18:1:9cis complex
  DNA fragmentation: DNA fragmentation was observed

B7: α-lac human: Native human α-lactalbumin purified from human milk (protein, UniProt P00709 20-142, looked up)
Alpha-lactalbumin: B6 Alpha-lactalbumin
[1]
  factor of decrease of Ca2+ affinity between low and physiological ionic strength: 200
[1]; [12]
  Ka, calcium association constant: 8.3e+06 M⁻¹
[1]; 150 mM NaCl (physiological salt), listed as α-lactalbumin
  Ka, calcium association constant: 8.3e+06 M⁻¹
[1]; low salt (no added salt)
  Ka, calcium association constant: 1.8e+09 M⁻¹
[1]; low salt (no added salt), listed as α-lactalbumin
  Ka, calcium association constant: 1.8e+09 M⁻¹
[1]; low salt
  Kd: 0.56 nM
[1]; [13]
  Kd: 120 nM
[4]; [8]
  Ka: 3e+08 M⁻¹
[4]; [10]
  Ka: 2e+07 M⁻¹
[6]
  Ka for Na+: 100 M⁻¹

B8: C18:1:11cis complex: complex of apo-α-lactalbumin with C18:1:11cis fatty acid eluted after 1M NaCl (protein, UniProt P00709 20-142, looked up)
Alpha-lactalbumin: B6 Alpha-lactalbumin
modifications: complex with C18:1:11cis fatty acid
notes: complex of apo-α-lactalbumin with C18:1:11cis fatty acid eluted after 1M NaCl
[2]; [7]
  cell viability: 0%
[2]
  apoptosis induction / biological activity: cause apoptosis
[3]
  DNA fragmentation: DNA fragmentation was observed
